Earlier results as cited in paper PMC6109845.

Target: HIF-1α 19-mer peptide (Homo sapiens) (UniProt Q16665)

von Hippel-Lindau E3 ubiquitin ligase (VHL), sequence (P40337 whole entry): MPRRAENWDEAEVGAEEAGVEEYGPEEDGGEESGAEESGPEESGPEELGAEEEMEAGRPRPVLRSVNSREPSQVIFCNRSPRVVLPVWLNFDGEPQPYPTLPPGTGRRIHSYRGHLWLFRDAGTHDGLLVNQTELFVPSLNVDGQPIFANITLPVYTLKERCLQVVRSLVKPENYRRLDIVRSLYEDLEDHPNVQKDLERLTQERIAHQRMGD

Kd: 3 nM
Substance: von Hippel-Lindau E3 ubiquitin ligase (VHL) (from UniProt P40337)
